Kd, fold higher affinity for Ub than Nedd8 and Ki data for four substances are collected here from PMC6669086.

Assay [1] has as its target ubiquitin (Homo sapiens) (UniProt P0CG48). As to conditions: cited from earlier work.
The target of assay [2] is Atto532-tUI (UniProt Q9UMX0). The assay is described as follows: other fluorescence titration.
Assay [3] concerns the target ubiquitin (Homo sapiens) (UniProt P0CG48). As to conditions: cited from earlier work. This is another data set of the same source.
In assay [4] the target is Atto532-tUI (UniProt Q9UMX0). The assay is described as follows: stopped-flow fluorescence kinetics.
The target of a further assay is tUI (UniProt Q9UMX0). In words: other fluorescence titration.

Read-outs that look alike come from different tables or passages of the source.

IsoT BUZ BUZ, sequence (P45974 173-289): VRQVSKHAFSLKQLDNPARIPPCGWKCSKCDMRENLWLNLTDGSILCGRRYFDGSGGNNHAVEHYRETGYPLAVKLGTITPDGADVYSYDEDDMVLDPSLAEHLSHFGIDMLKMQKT
Rabex5 RUZ RUZ, sequence (Q9UJ41 13-47): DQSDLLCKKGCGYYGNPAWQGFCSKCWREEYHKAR
Nedd8, sequence (Q15843 1-76): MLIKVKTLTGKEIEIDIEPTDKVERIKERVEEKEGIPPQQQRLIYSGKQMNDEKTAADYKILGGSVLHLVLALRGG

On to IsoT BUZ BUZ (from UniProt P45974), for which the Kd in the assay with ubiquitin (Homo sapiens) [1] was 3000 nM.
As for “Nedd8 (from UniProt Q15843 1-76) (natural protein)”, in the assay with Atto532-tUI [2], the fold higher affinity for Ub than Nedd8 was 120 fold.
With Rabex5 RUZ RUZ (from UniProt Q9UJ41), the Kd with ubiquitin (Homo sapiens) [3] is 12000 nM.
“ubiquitin (free Ub) (from UniProt P0CG48 1-76) (natural protein)”: the figures for the Kd with Atto532-tUI [4] and in the assay with Atto532-tUI [2] were 0.0564 nM and 0.066 nM, respectively. For the same substance, the Ki with tUI came to 0.194 nM.
